Source: IntAct's records for PubMed 31515488

B1: Beta-taxilin (Homo sapiens), Q8N3L3 (parent)
chain: MEANHSEQLSAERQSTPPGDSSSLPSHNGLEKEDGQDSPTPVQPPEKEASVHPDISEELNRQLEDIINTYGSAASTAGKEGSARASEQPENAESPDNEDGDCEETTEEAGREPVASGEPPTVKEPVSNKEQKLEKKILKGLGKEANLLMQNLNKLQTPEEKFDFLFKKYAELLDEHRTEQKKLKLLQKKQVQIQKEKDQLQGEHSRAILARSKLESLCRELQRHNKTLKEEALQRAREEEEKRKEITSHFQSTLTDIQGQIEQQSERNMKLCQENTELAEKLKSIIDQYELREEHLDKIFKHRELQQKLVDAKLEQAQEMMKEAEERHKREKEYLLNQAAEWKLQAKVLKEQETVLQAQLTLYSGRFEEFQSTLTKSNEVFATFKQEMDKTTKKMKKLEKDTATWKARFENCNKALLDMIEEKALRAKEYECFVMKIGRLENLCRALQEERNELHKKIRDAEISEKDDQSQHNSDEEPESNVSVDQEIDAEEVNSVQTAVKNLATAFMIIHHPESTPHQSKETQPEIGSSQESADAALKEPEQPPLIPSRDSESPLPPLTPQAEAEGGSDAEPPSKASNSPAGLGAETQCEGLPVGAQADQASWKPEAEASGQAPQAPTEASLQKMEADVPAPACAAEEHVAAMVPACEPSRQPPRAAAEELPVGASAGPQPRNVADTNLEGVD
partner: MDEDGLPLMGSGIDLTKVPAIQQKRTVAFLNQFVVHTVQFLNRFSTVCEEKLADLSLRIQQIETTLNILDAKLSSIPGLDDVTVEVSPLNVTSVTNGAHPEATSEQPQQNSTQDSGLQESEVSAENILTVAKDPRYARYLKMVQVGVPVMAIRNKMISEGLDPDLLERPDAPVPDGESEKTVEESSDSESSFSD
B2: Keratin-associated protein 5-9 (Homo sapiens), P26371 (parent)
chain: MGCCGCSGGCGSSCGGCDSSCGSCGSGCRGCGPSCCAPVYCCKPVCCCVPACSCSSCGKRGCGSCGGSKGGCGSCGCSQCSCCKPCCCSSGCGSSCCQCSCCKPYCSQCSCCKPCCSSSGRGSSCCQSSCCKPCCSSSGCGSSCCQSSCCKPCCSQSRCCVPVCYQCKI
B3: Nucleoplasmin-3 (Homo sapiens), O75607 (parent)
chain: MAAGTAAALAFLSQESRTRAGGVGGLRVPAPVTMDSFFFGCELSGHTRSFTFKVEEEDDAEHVLALTMLCLTEGAKDECNVVEVVARNHDHQEIAVPVANLKLSCQPMLSLDDFQLQPPVTFRLKSGSGPVRITGRHQIVTMSNDVSEEESEEEEEDSDEEEVELCPILPAKKQGGRP
partner: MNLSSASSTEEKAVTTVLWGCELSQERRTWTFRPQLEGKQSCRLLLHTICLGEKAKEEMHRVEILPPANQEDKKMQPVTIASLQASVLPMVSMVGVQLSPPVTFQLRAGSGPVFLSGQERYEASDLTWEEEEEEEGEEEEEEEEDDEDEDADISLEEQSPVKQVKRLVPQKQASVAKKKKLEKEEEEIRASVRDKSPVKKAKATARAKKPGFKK
B4: Zinc finger protein Aiolos (Homo sapiens), Q9UKT9-1 (parent)
chain: MEDIQTNAELKSTQEQSVPAESAAVLNDYSLTKSHEMENVDSGEGPANEDEDIGDDSMKVKDEYSERDENVLKSEPMGNAEEPEIPYSYSREYNEYENIKLERHVVSFDSSRPTSGKMNCDVCGLSCISFNVLMVHKRSHTGERPFQCNQCGASFTQKGNLLRHIKLHTGEKPFKCHLCNYACQRRDALTGHLRTHSVEKPYKCEFCGRSYKQRSSLEEHKERCRTFLQSTDPGDTASAEARHIKAEMGSERALVLDRLASNVAKRKSSMPQKFIGEKRHCFDVNYNSSYMYEKESELIQTRMMDQAINNAISYLGAEALRPLVQTPPAPTSEMVPVISSMYPIALTRAEMSNGAPQELEKKSIHLPEKSVPSERGLSPNNSGHDSTDTDSNHEERQNHIYQQNHMVLSRARNGMPLLKEVPRSYELLKPPPICPRDSVKVINKEGEVMDVYRCDHCRVLFLDYVMFTIHMGCHGFRDPFECNMCGYRSHDRYEFSSHIARGEHRALLK
partner: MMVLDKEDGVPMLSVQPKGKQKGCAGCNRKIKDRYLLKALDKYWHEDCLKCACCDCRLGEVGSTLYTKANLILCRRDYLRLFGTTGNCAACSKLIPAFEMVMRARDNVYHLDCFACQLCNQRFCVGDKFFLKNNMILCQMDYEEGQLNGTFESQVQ
B5: Dynein light chain Tctex-type 3 (Homo sapiens), P51808 (parent)
chain: MEEYHRHCDEVGFNAEEAHNIVKECVDGVLGGEDYNHNNINQWTASIVEQSLTHLVKLGKAYKYIVTCAVVQKSAYGFHTASSCFWDTTSDGTCTVRWENRTMNCIVNVFAIAIVL
B6: Protein FAM9B (Homo sapiens), Q8IZU0 (parent)
chain: MAAWGKKHAGKDPVRDECEERNRFTETREEDVTDEHGEREPFAETDEHTGANTKKPEDTAEDLTAKRKRMKMDKTCSKTKNKSKHALRKKQLKRQKRDYIHSLKLLNVLEEYITDEQKEEEEEEGEEEELIRIFQEQQKKWQQYRSVRRERLKEMKLLRDQFVKALEDFEDLCDRVFSDEDSELDN
partner: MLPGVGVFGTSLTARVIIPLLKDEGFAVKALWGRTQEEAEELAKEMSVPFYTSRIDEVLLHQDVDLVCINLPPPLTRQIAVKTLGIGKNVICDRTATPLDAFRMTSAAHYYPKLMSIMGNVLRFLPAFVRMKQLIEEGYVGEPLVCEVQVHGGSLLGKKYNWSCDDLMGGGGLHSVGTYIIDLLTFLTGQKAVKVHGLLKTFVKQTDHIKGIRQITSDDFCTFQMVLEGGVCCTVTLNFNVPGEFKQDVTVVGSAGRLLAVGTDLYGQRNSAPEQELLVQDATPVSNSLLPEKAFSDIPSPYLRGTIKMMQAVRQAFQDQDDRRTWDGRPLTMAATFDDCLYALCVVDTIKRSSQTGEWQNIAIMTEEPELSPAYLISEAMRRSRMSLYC
B7: Fructose-bisphosphate aldolase C (Homo sapiens), P09972 (parent)
chain: MPHSYPALSAEQKKELSDIALRIVAPGKGILAADESVGSMAKRLSQIGVENTEENRRLYRQVLFSADDRVKKCIGGVIFFHETLYQKDDNGVPFVRTIQDKGIVVGIKVDKGVVPLAGTDGETTTQGLDGLSERCAQYKKDGADFAKWRCVLKISERTPSALAILENANVLARYASICQQNGIVPIVEPEILPDGDHDLKRCQYVTEKVLAAVYKALSDHHVYLEGTLLKPNMVTPGHACPIKYTPEEIAMATVTALRRTVPPAVPGVTFLSGGQSEEEASFNLNAINRCPLPRPWALTFSYGRALQASALNAWRGQRDNAGAATEEFIKRAEVNGLAAQGKYEGSGEDGGAAAQSLYIANHAY
partner: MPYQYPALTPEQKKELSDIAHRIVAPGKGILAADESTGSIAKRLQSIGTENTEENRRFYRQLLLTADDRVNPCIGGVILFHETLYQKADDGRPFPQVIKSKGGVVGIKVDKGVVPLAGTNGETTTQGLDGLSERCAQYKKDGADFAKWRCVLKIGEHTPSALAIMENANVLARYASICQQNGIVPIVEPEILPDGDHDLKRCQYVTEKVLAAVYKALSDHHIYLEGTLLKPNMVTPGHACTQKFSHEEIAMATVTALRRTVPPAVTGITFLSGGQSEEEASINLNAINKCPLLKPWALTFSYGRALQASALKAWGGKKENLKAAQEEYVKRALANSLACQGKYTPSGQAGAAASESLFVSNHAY
B8: Serine/threonine-protein kinase PAK 6 (Homo sapiens), Q9NQU5 (parent)
chain: MFRKKKKKRPEISAPQNFQHRVHTSFDPKEGKFVGLPPQWQNILDTLRRPKPVVDPSRITRVQLQPMKTVVRGSAMPVDGYISGLLNDIQKLSVISSNTLRGRSPTSRRRAQSLGLLGDEHWATDPDMYLQSPQSERTDPHGLYLSCNGGTPAGHKQMPWPEPQSPRVLPNGLAAKAQSLGPAEFQGASQRCLQLGACLQSSPPGASPPTGTNRHGMKAAKHGSEEARPQSCLVGSATGRPGGEGSPSPKTRESSLKRRLFRSMFLSTAATAPPSSSKPGPPPQSKPNSSFRPPQKDNPPSLVAKAQSLPSDQPVGTFSPLTTSDTSSPQKSLRTAPATGQLPGRSSPAGSPRTWHAQISTSNLYLPQDPTVAKGALAGEDTGVVTHEQFKAALRMVVDQGDPRLLLDSYVKIGEGSTGIVCLAREKHSGRQVAVKMMDLRKQQRRELLFNEVVIMRDYQHFNVVEMYKSYLVGEELWVLMEFLQGGALTDIVSQVRLNEEQIATVCEAVLQALAYLHAQGVIHRDIKSDSILLTLDGRVKLSDFGFCAQISKDVPKRKSLVGTPYWMAPEVISRSLYATEVDIWSLGIMVIEMVDGEPPYFSDSPVQAMKRLRDSPPPKLKNSHKVSPVLRDFLERMLVRDPQERATAQELLDHPFLLQTGLPECLVPLIQLYRKQTSTC

Variants of: B1
Conditions: with wasc3_human WASHC3, Q9Y3C0

| effect of a mutation on the interaction | Variant |
| --- | --- |
| with no effect | I527T |

Variants of: B2
Conditions: with catz_human CTSZ

| effect of a mutation on the interaction | Variant |
| --- | --- |
| disrupting interaction strength | Y40C |

Variants of: B2
Conditions: with sdc3_human SDC3, O75056
Sequence of sdc3_human SDC3, O75056 (O75056 whole entry): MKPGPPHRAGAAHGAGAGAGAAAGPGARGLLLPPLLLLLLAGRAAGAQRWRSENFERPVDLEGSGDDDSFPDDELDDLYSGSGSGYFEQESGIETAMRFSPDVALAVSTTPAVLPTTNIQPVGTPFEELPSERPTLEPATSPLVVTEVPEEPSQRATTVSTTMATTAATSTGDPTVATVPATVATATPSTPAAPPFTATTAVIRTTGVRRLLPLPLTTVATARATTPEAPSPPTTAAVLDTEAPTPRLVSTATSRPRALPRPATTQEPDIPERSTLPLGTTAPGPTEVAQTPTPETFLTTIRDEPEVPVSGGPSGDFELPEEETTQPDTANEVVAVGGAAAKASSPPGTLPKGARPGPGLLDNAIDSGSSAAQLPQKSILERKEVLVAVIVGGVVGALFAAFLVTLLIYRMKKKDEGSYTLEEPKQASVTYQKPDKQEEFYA

| effect of a mutation on the interaction | Variant |
| --- | --- |
| with no effect | Y40C |

Variants of: B3
Conditions: with npm2_human NPM2, Q86SE8

| effect of a mutation on the interaction | Variant |
| --- | --- |
| with no effect | E149K |

Variants of: B4
Conditions: with rbtn1_human LMO1, P25800

| effect of a mutation on the interaction | Variant |
| --- | --- |
| with no effect | I338M |

Variants of: B4
Conditions: with rbtn1_human LMO1, P25800
Remark: another data set of the same source

| effect of a mutation on the interaction | Variant |
| --- | --- |
| with no effect | N119D |
| with no effect | A24V |

Variants of: B5
Conditions: with dc1i2_human DYNC1I2, Q13409
Sequence of dc1i2_human DYNC1I2, Q13409 (Q13409 whole entry): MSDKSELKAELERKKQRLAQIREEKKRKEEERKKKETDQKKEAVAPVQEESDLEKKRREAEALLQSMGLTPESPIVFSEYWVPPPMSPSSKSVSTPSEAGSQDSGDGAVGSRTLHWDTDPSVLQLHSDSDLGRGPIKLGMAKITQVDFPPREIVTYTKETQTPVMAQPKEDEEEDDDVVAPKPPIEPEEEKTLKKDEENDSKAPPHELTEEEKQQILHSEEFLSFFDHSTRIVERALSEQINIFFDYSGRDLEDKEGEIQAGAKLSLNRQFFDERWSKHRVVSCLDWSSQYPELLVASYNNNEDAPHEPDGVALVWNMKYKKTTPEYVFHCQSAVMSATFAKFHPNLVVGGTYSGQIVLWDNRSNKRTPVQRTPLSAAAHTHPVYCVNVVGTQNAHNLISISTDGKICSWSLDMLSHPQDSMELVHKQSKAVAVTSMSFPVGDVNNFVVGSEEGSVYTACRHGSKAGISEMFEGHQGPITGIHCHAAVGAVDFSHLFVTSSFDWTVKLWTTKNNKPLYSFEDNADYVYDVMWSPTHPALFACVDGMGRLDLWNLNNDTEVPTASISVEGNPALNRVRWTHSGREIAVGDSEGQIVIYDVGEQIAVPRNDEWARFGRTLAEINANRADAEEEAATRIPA

| effect of a mutation on the interaction | Variant |
| --- | --- |
| with no effect | A75T |

Variants of: B6
Conditions: with gfod1_human GFOD1, Q9NXC2

| effect of a mutation on the interaction | Variant |
| --- | --- |
| with no effect | R23H |

Variants of: B7
Conditions: with aldoa_human ALDOA

| effect of a mutation on the interaction | Variant |
| --- | --- |
| with no effect | N312S |

Variants of: B8
Conditions: with rhoj_human RHOJ

| effect of a mutation on the interaction | Variant |
| --- | --- |
| disrupting interaction strength | L514R |
| with no effect | R103C |
